Reference: patent US20260151519A1 (AKTIS ONCOLOGY, published 2026)
Primed or numbered codes have the meaning given here. Where no end group is shown, it is not given here. [ ]: non-standard residue; d: D form. The star is where a group is joined. Biotin = O=C1N[C@H]2[C@H](CS[C@H]2CCCCC(=O)*)N1; Lys(Me3) = C[N+](C)(C)CCCC[C@H](N)C(=O)O; PEG4′ = not defined here

T1: SLC22A23 (human, UniProt A1A5C7 1-686)
T1 construct: whole, on cells
T1 sequence (looked up): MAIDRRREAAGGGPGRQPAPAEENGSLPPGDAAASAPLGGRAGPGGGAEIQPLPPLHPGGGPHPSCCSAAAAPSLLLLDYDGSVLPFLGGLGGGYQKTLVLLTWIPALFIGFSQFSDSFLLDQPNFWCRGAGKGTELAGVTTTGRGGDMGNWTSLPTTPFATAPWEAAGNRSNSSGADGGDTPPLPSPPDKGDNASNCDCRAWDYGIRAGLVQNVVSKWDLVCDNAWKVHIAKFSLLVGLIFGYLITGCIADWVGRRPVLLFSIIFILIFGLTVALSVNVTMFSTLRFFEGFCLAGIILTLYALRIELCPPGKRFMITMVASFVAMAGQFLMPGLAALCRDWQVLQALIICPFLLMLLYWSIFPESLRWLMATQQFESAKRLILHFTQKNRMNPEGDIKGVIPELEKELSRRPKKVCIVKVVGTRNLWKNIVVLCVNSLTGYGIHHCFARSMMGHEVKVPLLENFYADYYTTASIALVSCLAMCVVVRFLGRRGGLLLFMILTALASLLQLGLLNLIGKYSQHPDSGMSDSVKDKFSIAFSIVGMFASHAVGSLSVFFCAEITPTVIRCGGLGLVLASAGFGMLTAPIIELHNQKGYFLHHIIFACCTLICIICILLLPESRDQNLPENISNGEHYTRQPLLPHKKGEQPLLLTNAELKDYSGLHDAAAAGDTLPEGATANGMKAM

T2: IGFBP4 (human, UniProt P22692 22-258)
T2 construct: whole, on cells; Secreted targets were tethered to the plasma membrane
T2 sequence (looked up): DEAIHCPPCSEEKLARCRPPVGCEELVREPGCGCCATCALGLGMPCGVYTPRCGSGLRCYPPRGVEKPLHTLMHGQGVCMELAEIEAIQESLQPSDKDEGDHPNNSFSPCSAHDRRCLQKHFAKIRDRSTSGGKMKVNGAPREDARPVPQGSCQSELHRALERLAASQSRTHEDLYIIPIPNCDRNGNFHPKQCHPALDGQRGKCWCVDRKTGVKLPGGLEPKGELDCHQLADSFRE

T3: GLP2R (human, UniProt O95838 1-553)
T3 construct: whole, on cells
T3 sequence (looked up): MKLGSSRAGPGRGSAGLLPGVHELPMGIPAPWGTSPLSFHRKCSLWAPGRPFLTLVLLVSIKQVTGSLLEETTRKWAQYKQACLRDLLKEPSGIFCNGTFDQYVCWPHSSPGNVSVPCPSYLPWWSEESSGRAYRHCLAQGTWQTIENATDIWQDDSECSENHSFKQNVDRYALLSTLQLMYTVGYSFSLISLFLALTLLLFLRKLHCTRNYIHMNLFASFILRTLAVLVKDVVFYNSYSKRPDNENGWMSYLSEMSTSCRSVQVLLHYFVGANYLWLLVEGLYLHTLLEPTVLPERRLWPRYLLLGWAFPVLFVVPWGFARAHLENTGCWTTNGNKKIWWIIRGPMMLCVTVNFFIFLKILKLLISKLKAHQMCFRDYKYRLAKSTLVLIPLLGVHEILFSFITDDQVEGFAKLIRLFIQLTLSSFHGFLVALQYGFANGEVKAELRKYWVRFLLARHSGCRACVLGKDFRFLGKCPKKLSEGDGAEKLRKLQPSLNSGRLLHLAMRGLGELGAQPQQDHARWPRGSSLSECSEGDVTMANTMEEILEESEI

T4: Human Nectin-4 (human, UniProt Q96NY8 32-349, limits assumed)
T4 construct: Protein immobilised on the SPR chip; also called target protein
T4 sequence: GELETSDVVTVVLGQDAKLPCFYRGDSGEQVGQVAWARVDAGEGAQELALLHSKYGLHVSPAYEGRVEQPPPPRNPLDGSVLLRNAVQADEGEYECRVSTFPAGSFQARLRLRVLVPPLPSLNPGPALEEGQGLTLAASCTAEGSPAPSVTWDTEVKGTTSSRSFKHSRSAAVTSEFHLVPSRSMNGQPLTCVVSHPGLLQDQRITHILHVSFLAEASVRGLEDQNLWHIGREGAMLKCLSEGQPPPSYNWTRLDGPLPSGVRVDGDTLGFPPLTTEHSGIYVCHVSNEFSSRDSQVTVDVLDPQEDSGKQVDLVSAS


How the values were obtained:
[1] = molecular target: T5, EGF (human, UniProt P01133 23-1207); test: cell microarray on HEK293 cells
T5 construct: whole, on cells
Procedure: (§1) Initially, two pools of compounds were tested. […] To perform this assay, HEK293 cells were plated on a dish and localized spots of cells were transiently over-expressed with a single cDNA encoding for GFP and one of the 6,416 targets. Included in this library were multiple clones for the Nectin family members, including plasma membrane, non-tethered secreted, and tethered secreted forms of Nectin-1, 2, 3, and 4. Secreted protein targets were tethered to the plasma membrane to aid in detection. The molecule pools were incubated on the fixed, over-expressing cell microarrays (n=2 per protein), and binding was visualized using Alexa Fluor 647 streptavidin fluorescence.

[2] = molecular target: T1, SLC22A23; test: cell microarray on HEK293 cells
Procedure: as §1

[3] = molecular target: T2, IGFBP4; test: cell microarray on HEK293 cells
Procedure: as §1

[4] = molecular target: T3, GLP2R; test: cell microarray on HEK293 cells
Procedure: as §1

[5] = molecular target: T6, IGF1 (human, UniProt P05019 49-118); test: cell microarray on HEK293 cells
T6 construct: whole, on cells; Secreted targets were tethered to the plasma membrane
Procedure: as §1

[6] = molecular target: T7, IGFBP3 (human, UniProt P17936 28-291); test: cell microarray on HEK293 cells
T7 construct: whole, on cells; Secreted targets were tethered to the plasma membrane
Procedure: as §1

[7] = molecular target: T8, PAPPA (human, UniProt Q13219 82-1627); test: cell microarray on HEK293 cells
T8 construct: whole, on cells; Secreted targets were tethered to the plasma membrane
Procedure: as §1

[8] = molecular target: T9, IGFBP5 (human, UniProt P24593 21-272); test: cell microarray on HEK293 cells
T9 construct: whole, on cells; Secreted targets were tethered to the plasma membrane
Procedure: as §1

[9] = molecular target: T10, IGF2 (human, UniProt P01344 25-91); test: cell microarray on HEK293 cells
T10 construct: whole, on cells; Secreted targets were tethered to the plasma membrane
Procedure: as §1

[10] = molecular target: T11, TRPV4 (human, UniProt Q9HBA0 1-871); test: cell microarray on HEK293 cells
T11 construct: whole, on cells
Procedure: as §1

[11] = molecular target: T4, Human Nectin-4; test: Table 2B (DELFIA or SPR)

T8 sequence (Q13219 82-1627): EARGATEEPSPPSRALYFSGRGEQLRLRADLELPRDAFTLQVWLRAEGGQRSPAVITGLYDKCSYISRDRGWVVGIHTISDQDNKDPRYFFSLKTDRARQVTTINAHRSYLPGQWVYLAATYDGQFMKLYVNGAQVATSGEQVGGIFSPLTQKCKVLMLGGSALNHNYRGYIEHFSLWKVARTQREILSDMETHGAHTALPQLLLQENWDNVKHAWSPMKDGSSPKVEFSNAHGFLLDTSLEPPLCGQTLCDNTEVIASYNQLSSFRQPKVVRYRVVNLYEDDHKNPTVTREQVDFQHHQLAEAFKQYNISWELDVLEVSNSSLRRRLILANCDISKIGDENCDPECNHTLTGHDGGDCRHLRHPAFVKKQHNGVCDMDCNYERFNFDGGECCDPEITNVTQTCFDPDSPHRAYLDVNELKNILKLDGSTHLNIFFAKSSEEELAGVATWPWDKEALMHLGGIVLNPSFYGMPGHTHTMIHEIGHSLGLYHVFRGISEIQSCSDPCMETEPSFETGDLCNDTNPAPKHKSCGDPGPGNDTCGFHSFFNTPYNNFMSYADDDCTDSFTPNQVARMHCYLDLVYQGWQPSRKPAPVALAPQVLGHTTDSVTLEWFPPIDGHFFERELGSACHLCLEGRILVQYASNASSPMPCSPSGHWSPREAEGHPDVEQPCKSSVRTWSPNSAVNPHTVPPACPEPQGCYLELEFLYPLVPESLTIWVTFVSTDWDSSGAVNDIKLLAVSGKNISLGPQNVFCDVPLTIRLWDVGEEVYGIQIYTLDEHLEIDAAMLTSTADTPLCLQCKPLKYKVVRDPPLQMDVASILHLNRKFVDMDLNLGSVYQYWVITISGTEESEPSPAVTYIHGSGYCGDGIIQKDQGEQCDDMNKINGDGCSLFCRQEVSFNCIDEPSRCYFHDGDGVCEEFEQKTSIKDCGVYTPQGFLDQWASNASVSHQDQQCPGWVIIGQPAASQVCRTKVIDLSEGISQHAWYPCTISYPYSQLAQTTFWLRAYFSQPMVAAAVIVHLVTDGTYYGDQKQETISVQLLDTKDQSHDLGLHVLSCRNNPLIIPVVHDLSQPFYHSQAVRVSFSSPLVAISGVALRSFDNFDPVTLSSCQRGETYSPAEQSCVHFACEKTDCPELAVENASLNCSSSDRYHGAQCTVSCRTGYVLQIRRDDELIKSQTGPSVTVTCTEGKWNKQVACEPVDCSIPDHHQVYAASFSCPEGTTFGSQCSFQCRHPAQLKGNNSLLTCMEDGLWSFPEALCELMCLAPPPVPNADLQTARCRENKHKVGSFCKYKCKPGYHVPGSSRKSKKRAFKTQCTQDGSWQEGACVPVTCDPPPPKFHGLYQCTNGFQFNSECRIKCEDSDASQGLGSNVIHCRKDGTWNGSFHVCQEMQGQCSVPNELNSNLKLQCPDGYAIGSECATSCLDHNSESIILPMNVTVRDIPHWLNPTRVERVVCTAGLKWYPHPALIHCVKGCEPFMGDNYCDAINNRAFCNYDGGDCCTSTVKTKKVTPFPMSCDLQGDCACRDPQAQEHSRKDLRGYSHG
T5 sequence (P01133 23-1207): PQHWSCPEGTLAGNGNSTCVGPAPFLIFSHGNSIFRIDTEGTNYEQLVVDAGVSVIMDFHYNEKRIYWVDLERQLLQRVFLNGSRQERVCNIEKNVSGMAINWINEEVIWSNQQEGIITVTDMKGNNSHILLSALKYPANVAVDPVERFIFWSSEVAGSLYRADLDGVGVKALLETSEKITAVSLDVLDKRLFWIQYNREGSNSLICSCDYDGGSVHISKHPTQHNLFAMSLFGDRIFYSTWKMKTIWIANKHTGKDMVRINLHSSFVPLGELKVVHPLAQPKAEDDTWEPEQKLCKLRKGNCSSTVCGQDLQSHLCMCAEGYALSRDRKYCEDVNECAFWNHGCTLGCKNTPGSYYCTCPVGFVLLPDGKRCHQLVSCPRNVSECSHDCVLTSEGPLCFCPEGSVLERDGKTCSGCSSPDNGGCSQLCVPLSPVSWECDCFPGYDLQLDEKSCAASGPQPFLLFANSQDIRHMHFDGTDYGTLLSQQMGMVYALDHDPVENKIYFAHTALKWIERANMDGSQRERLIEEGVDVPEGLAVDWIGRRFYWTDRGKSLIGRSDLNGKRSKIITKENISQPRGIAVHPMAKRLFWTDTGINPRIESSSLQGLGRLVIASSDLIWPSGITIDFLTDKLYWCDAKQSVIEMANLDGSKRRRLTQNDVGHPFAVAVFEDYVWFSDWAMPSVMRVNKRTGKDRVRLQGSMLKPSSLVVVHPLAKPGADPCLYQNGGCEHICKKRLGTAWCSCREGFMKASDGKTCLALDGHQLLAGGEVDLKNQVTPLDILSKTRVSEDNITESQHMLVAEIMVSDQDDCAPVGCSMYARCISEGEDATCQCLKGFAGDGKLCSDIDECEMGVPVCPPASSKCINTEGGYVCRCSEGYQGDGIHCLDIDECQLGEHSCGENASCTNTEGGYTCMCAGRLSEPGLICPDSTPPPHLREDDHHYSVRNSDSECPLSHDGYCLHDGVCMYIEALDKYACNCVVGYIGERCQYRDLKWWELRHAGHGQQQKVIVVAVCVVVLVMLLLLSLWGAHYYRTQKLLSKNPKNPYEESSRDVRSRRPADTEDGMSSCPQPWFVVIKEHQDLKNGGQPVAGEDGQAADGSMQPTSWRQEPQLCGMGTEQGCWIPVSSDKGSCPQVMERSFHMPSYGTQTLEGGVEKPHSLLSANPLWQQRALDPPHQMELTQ
T7 sequence (P17936 28-291): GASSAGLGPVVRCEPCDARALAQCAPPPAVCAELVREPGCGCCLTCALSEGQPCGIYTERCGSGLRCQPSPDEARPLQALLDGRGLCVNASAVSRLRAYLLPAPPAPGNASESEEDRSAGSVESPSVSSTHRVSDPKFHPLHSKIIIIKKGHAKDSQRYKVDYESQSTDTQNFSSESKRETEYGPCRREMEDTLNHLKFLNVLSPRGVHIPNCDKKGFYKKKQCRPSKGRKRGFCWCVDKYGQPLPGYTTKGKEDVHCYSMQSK
T9 sequence (P24593 21-272): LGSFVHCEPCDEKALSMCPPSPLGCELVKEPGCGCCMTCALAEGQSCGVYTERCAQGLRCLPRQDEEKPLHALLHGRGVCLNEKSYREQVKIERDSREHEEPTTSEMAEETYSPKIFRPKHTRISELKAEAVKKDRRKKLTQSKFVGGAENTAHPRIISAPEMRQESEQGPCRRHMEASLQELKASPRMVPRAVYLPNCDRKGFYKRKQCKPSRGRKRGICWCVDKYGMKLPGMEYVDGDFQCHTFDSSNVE
T11 sequence (Q9HBA0 whole entry): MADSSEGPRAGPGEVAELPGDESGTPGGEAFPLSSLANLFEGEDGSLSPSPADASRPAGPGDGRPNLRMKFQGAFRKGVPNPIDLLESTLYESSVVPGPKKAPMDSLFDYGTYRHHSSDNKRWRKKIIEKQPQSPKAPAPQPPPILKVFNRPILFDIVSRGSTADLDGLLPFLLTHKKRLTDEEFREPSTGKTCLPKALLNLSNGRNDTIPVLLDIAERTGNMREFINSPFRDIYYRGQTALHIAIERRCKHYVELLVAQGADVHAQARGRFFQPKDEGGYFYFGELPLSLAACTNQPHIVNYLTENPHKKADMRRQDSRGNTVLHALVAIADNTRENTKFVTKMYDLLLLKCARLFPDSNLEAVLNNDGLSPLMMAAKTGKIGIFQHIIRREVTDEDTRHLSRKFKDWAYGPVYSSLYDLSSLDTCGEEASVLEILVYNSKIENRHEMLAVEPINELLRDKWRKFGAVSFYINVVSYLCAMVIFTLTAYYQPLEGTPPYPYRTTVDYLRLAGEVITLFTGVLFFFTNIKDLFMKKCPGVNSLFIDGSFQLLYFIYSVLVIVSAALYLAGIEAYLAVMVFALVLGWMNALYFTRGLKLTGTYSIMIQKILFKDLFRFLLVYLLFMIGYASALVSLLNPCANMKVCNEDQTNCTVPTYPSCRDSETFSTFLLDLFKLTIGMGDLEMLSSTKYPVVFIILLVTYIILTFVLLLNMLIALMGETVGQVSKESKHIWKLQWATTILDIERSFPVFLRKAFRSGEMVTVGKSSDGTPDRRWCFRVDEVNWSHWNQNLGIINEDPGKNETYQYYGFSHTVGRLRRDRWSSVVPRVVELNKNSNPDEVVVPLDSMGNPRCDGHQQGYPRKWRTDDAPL
T10 sequence (P01344 25-91): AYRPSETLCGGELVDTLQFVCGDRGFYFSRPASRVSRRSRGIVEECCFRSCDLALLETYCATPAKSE
T6 sequence (P05019 49-118): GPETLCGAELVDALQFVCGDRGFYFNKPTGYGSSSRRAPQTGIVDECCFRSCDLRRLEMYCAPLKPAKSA

Binder	binding result [1]	binding result [2]	binding result [3]	binding result [4]	binding result [5]	binding result [6]	binding result [7]	binding result [8]	binding result [9]	binding result [10]	Kd [11] [pM]
{Biotin-PEG4′}-CEYDEEFFTALARLRGGDICQYIQA[Lys(Me3)]FQYLPALCIEEILDNLGCS (designed binder, cysteine pairing not given here) [C253]	no binding (tested: 2 µg/mL)	no binding (tested: 2 µg/mL)	no binding (tested: 2 µg/mL)	no binding (tested: 2 µg/mL)	no binding (tested: 2 µg/mL)	no binding (tested: 2 µg/mL)	no binding (tested: 2 µg/mL)	no binding (tested: 2 µg/mL)	no binding (tested: 2 µg/mL)	no binding (tested: 2 µg/mL)	–
{Biotin-PEG4′}-CDYDEQFFTALKRLRGADICEYIQASFQYLPGECIEEILDNLGCS (designed binder, cysteine pairing not given here) [C208]	no binding (tested: 2 µg/mL)	no binding (tested: 2 µg/mL)	no binding (tested: 2 µg/mL)	no binding (tested: 2 µg/mL)	no binding (tested: 2 µg/mL)	no binding (tested: 2 µg/mL)	no binding (tested: 2 µg/mL)	no binding (tested: 2 µg/mL)	no binding (tested: 2 µg/mL)	no binding (tested: 2 µg/mL)	1020
{Biotin-PEG4′}-CDYDEQFFTALARLRGADICEYIQASFQYLPGECIEEILDNLGCS (designed binder, cysteine pairing not given here) [C247]	no binding (tested: 2 µg/mL)	no binding (tested: 2 µg/mL)	no binding (tested: 2 µg/mL)	no binding (tested: 2 µg/mL)	no binding (tested: 2 µg/mL)	no binding (tested: 2 µg/mL)	no binding (tested: 2 µg/mL)	no binding (tested: 2 µg/mL)	no binding (tested: 2 µg/mL)	no binding (tested: 2 µg/mL)	–
{Biotin-PEG4′}-CEYDEQFFTALKRLRGDDICDYIQASFQYLPGLCIEEILDNLGCS (designed binder, cysteine pairing not given here) [C197]	no binding (tested: 2 µg/mL)	no binding (tested: 2 µg/mL)	no binding (tested: 2 µg/mL)	no binding (tested: 2 µg/mL)	no binding (tested: 2 µg/mL)	no binding (tested: 2 µg/mL)	no binding (tested: 2 µg/mL)	no binding (tested: 2 µg/mL)	no binding (tested: 2 µg/mL)	no binding (tested: 2 µg/mL)	970
{Biotin-PEG4′}-CDYDEQFFTALKRLRGGDICEYIQASFQYLPGLCIEEILDNLGCS (designed binder, cysteine pairing not given here) [C190]	no binding (tested: 2 µg/mL)	no binding (tested: 2 µg/mL)	no binding (tested: 2 µg/mL)	no binding (tested: 2 µg/mL)	no binding (tested: 2 µg/mL)	no binding (tested: 2 µg/mL)	no binding (tested: 2 µg/mL)	no binding (tested: 2 µg/mL)	no binding (tested: 2 µg/mL)	no binding (tested: 2 µg/mL)	710
